According to US20220204565A1 (DREXEL UNIVERSITY, published 2022):
Bridges are numbered along the chain shown (N, C = ends). Where no end group is shown, it is not given here. [ ]: non-standard residue; d: D form. triazolo‑Pro(2,4-diMe-benzyl) = triazolo-proline with ortho- and para-methyl phenyl methyl on the triazole; triazolo‑Pro(3,4-diMe-benzyl) = triazolo-proline with para- and meta-methyl phenyl methyl on the triazole; triazolo‑Pro(3,5-diMe-benzyl) = triazolo-proline with two meta-methyl phenyl methyl on the triazole; triazolo‑Pro(2-Me-benzyl) = triazolo-proline with ortho-methyl phenyl methyl on the triazole; triazolo‑Pro(3-Me-benzyl) = triazolo-proline with meta-methyl phenyl methyl on the triazole; triazolo‑Pro(4-Me-benzyl) = triazolo-proline with para-methyl phenyl methyl on the triazole; triazolo‑Pro(4-tBu-phenyl) = triazolo-proline with para-tert-butylphenyl on the triazole; triazolo‑Pro(ferrocenyl) = triazolo-proline carrying a ferrocene moiety on the triazole; triazolo‑Pro(benzyl) = triazolo-proline with phenyl methyl moiety on the triazole; triazolo‑Pro(biphenyl) = triazolo-proline with biphenyl group on the triazole

B1: cPT 3 (AAR029b) (peptide)
peptide: DNI[triazolo‑Pro(ferrocenyl)]WK-NH2
modifications: lactam 1-6
notes: Ferrocene-containing parent cyclic peptide triazole; also called lead cPT 3
B2: cPT 20 (peptide)
peptide: DNIPWK-NH2
modifications: lactam 1-6; not fully specified (residue 4); also: further groups not given here

Target: T1, wild type monomeric full-length HIV-1 YU-2 gp120 (HIV-1 YU-2, UniProt P35961 32-498)
T1 construct: domain: gp120; also called gp120YU-2; gp120 YU-2
Experiment: SPR competition: gp120 YU-2 with increasing peptide over immobilised 17b; competitor 17b
Procedure: (§1) For kinetic analyses, typically 2000-3000 RUs of protein reagents are immobilized on SPR chips, and analytes are passed over the surface at 50-100 μL/min. Surface regeneration is achieved by a 5 μL injection of 10 mM HCl solution at 100 μL/min.
(§2) Data analysis of SPR competition data was performed using BIAevaluation v4.1.1 software (GE). To correct for nonspecific binding, response signals from buffer injection and from control flow cell were subtracted from all sensorgrams. […] The inhibition curve was plotted and then fitted using the four-parameter equation as shown below using OriginPro 8 graphing software.

Binder DNI[4‑(4-(4-(thiophen-2-yl)phenyl)-1H-1,2,3-triazol-1-yl)proline]WK-NH2 (lactam 1-6, also called Compound 29N-2) [cPT 36 (29N-2)] has an IC50 of ~0.056 µM.

Target: T1, wild type monomeric full-length HIV-1 …
Experiment: ITC with monomeric gp120 YU-2
Procedure: (§3) The resulting heat changes were integrated, and the values obtained were fitted to a quadratic binding equation (one site binding model).
(§4) cPT dissociation constants were determined at 25° C. on a VP-Isothermal Titration Calorimeter (VP-ITC) system (MicroCal™, GE Healthcare, Freiburg). […] The resulting heat change upon injection was integrated over a time range of 300 sec, and the obtained values were fitted to a standard single-site binding model using ORIGIN®.

First: DNI[4‑(4-(4-(thiophen-2-yl)phenyl)-1H-1,2,3-triazol-1-yl)proline]WK-NH2 (lactam 1-6, also called Compound 29N-2) [cPT 36 (29N-2)]
Second: B1
The “-TΔS” value of the first is lower: -19.8 kJ/mol for the first, -11.5 kJ/mol for the second.

Target: T1, wild type monomeric full-length HIV-1 …
Experiment: SPR competition: gp120 YU-2 with increasing peptide over immobilised soluble CD4; competitor CD4
Procedure: as §1, §2

First: DNI[triazolo‑Pro(4-iPr-phenyl)]WK-NH2 (lactam 1-6) [cPT 21]
Second: DNI[triazolo‑Pro(2-Me-benzyl)]WK-NH2 (lactam 1-6) [cPT 25]
The IC50 of the first is 9.1-fold higher: 1.2 µM for the first, 0.132 µM for the second. The second is the more potent here.

First: DNI[triazolo‑Pro(3,5-diMe-benzyl)]WK-NH2 (lactam 1-6) [cPT 28]
Second: DNI[triazolo‑Pro(4-tBu-phenyl)]WK-NH2 (lactam 1-6) [cPT 22]
The IC50 of the first is 6.2-fold higher: 0.926 µM for the first, 0.15 µM for the second.

B2 and DNI[triazolo‑Pro(biphenyl)]WK-NH2 (lactam 1-6) [cPT 23] are within 1.5-fold of each other in IC50: 0.956 µM for the first, 0.68 µM for the second.

Going from DNI[triazolo‑Pro(4-Me-benzyl)]WK-NH2 (lactam 1-6) [cPT 24] to DNI[triazolo‑Pro(benzyl)]WK-NH2 (lactam 1-6) [cPT 19], the IC50 rises from 0.08 µM to 0.257 µM (3.2-fold). The first is the more potent here.

Compared with DNI[triazolo‑Pro(3-Me-benzyl)]WK-NH2 (lactam 1-6) [cPT 26], DNI[triazolo‑Pro(2,4-diMe-benzyl)]WK-NH2 (lactam 1-6) [cPT 27] is 1.8-fold lower in IC50: 0.234 µM for the first, 0.13 µM for the second.

DNI[triazolo‑Pro(3,4-diMe-benzyl)]WK-NH2 (lactam 1-6) [cPT 29] gave an IC50 of 2.8 µM.

Target: T1, wild type monomeric full-length HIV-1 …
Experiment: SPR competition: fixed HIV-1 YU-2 gp120 mixed with rising concentrations of 36 and passed over immobilized 17b; y axis % gp120 binding to 17b falls from about 100 to near 0 between about 2 and 2500 nM
Procedure: as §1, §2

DNI[4‑(4-(4-(thiophen-2-yl)phenyl)-1H-1,2,3-triazol-1-yl)proline]WK-NH2 (lactam 1-6, also called Compound 29N-2) [cPT 36 (29N-2)] showed an IC50 of 0.056 µM.

Target: T1, wild type monomeric full-length HIV-1 …
Experiment: SPR competition: gp120 YU-2 with increasing peptide over immobilised soluble CD4; competitor CD4
Remark: another data set of the same source
Procedure: as §1, §2

DNI[4‑(4-(4-(thiophen-2-yl)phenyl)-1H-1,2,3-triazol-1-yl)proline]WK-NH2 (lactam 1-6, also called Compound 29N-2) [cPT 36 (29N-2)] showed an IC50 of ~0.066 µM.

Target: T1, wild type monomeric full-length HIV-1 …
Experiment: SPR competition: fixed HIV-1 YU-2 gp120 mixed with rising concentrations of 36 and passed over immobilized soluble CD4; y axis % gp120 binding to CD4 falls from about 97 to about 10 between about 5 and 2500 nM
Procedure: as §1, §2

DNI[4‑(4-(4-(thiophen-2-yl)phenyl)-1H-1,2,3-triazol-1-yl)proline]WK-NH2 (lactam 1-6, also called Compound 29N-2) [cPT 36 (29N-2)] was tested, and the IC50 was 0.066 µM.

Target: T1, wild type monomeric full-length HIV-1 …
Experiment: SPR competition: gp120 YU-2 with increasing peptide over immobilised soluble CD4; competitor CD4; CD4 competition column, not 17b competition
Procedure: as §1, §2

With DNI[triazolo‑Pro]WK-NH2 (lactam 1-6; not fully specified) [cPT 18] the IC50 was 0.614 µM.

Target: T1, wild type monomeric full-length HIV-1 …
Experiment: SPR competition: gp120 YU-2 with increasing peptide over immobilised 17b; competitor 17b
Remark: another data set of the same source
Procedure: as §1, §2

Compared with DNI[triazolo‑Pro(4-iPr-phenyl)]WK-NH2 (lactam 1-6) [cPT 21], DNI[triazolo‑Pro(2-Me-benzyl)]WK-NH2 (lactam 1-6) [cPT 25] is 9.8-fold lower in IC50: 1.26 µM for the first, 0.128 µM for the second.

Compared with DNI[triazolo‑Pro(3,5-diMe-benzyl)]WK-NH2 (lactam 1-6) [cPT 28], DNI[triazolo‑Pro(4-tBu-phenyl)]WK-NH2 (lactam 1-6) [cPT 22] is 7.7-fold lower in IC50: 0.918 µM for the first, 0.12 µM for the second.

B2 and DNI[triazolo‑Pro(biphenyl)]WK-NH2 (lactam 1-6) [cPT 23] are within 1.5-fold of each other in IC50: 0.82 µM for the first, 0.72 µM for the second.

Compared with DNI[triazolo‑Pro(4-Me-benzyl)]WK-NH2 (lactam 1-6) [cPT 24], DNI[triazolo‑Pro]WK-NH2 (lactam 1-6; not fully specified) [cPT 18] is 8.7-fold higher in IC50: 0.074 µM for the first, 0.647 µM for the second. The first is the more potent here.

DNI[triazolo‑Pro(benzyl)]WK-NH2 (lactam 1-6) [cPT 19] and DNI[triazolo‑Pro(3-Me-benzyl)]WK-NH2 (lactam 1-6) [cPT 26] are within 1.5-fold of each other in IC50: 0.269 µM for the first, 0.228 µM for the second.

Compared with DNI[triazolo‑Pro(2,4-diMe-benzyl)]WK-NH2 (lactam 1-6) [cPT 27], DNI[triazolo‑Pro(3,4-diMe-benzyl)]WK-NH2 (lactam 1-6) [cPT 29] is 19-fold higher in IC50: 0.136 µM for the first, 2.6 µM for the second. The first is the more potent here.

Target: T1, wild type monomeric full-length HIV-1 …
Experiment: ITC, peptide titrated into 30 µM full-length gp120 YU-2, 25 °C, PBS pH 7.3
Procedure: as §3, §4

DNI[4‑(4-(4-(thiophen-2-yl)phenyl)-1H-1,2,3-triazol-1-yl)proline]WK-NH2 (lactam 1-6, also called Compound 29N-2) [cPT 36 (29N-2)] and B1 are within 1.5-fold of each other in Kd: 0.35 µM for the first, 0.415 µM for the second.

Going from DNI[4‑(4-(4-(thiophen-2-yl)phenyl)-1H-1,2,3-triazol-1-yl)proline]WK-NH2 (lactam 1-6, also called Compound 29N-2) [cPT 36 (29N-2)] to B1, the ΔH falls from -17 kJ/mol to -24.9 kJ/mol.

Going from DNI[4‑(4-(4-(thiophen-2-yl)phenyl)-1H-1,2,3-triazol-1-yl)proline]WK-NH2 (lactam 1-6, also called Compound 29N-2) [cPT 36 (29N-2)] to B1, the ΔS falls from 0.0665 kJ/mol to 0.0386 kJ/mol.

Target: HIV-1 BaL.01 Env gp160 on pseudovirus (HIV-1 BaL.01)
Experiment: cell-based or functional assay

With DNI[4‑(4-(4-(thiophen-2-yl)phenyl)-1H-1,2,3-triazol-1-yl)proline]WK-NH2 (lactam 1-6, also called Compound 29N-2) [cPT 36 (29N-2)] the “HIV-1 infection inhibition IC50” value was ~0.105 µM.

For DNI[triazolo‑Pro(2-Me-benzyl)]WK-NH2 (lactam 1-6) [cPT 25], the “HIV-1 cell infection inhibition, fold lower potency against cPT 24” value was ~28 fold.

B1 was tested, and the “HIV-1Bal.01 infection inhibition IC50” value was ~0.237 µM.

DNI[triazolo‑Pro]WK-NH2 (lactam 1-6; not fully specified) [cPT 18] was tested, and the “HIV-1 cell infection inhibition IC50” value was ~1.3 µM.

Target: HIV-1 BaL.01 Env gp160 on pseudovirus (HIV-1 BaL.01)
Experiment: cell-based or functional assay
Remark: another data set of the same source

Going from DNI[triazolo‑Pro(4-iPr-phenyl)]WK-NH2 (lactam 1-6) [cPT 21] to DNI[triazolo‑Pro(2-Me-benzyl)]WK-NH2 (lactam 1-6) [cPT 25], the “HIV-1Bal.01 infection inhibition IC50” value rises from 0.9 µM to 5.1 µM (5.7-fold).

Compared with DNI[triazolo‑Pro(3,5-diMe-benzyl)]WK-NH2 (lactam 1-6) [cPT 28], DNI[triazolo‑Pro(4-tBu-phenyl)]WK-NH2 (lactam 1-6) [cPT 22] is 5.7-fold lower in “HIV-1Bal.01 infection inhibition IC50” value: 2 µM for the first, 0.35 µM for the second.

Going from B2 to DNI[triazolo‑Pro(biphenyl)]WK-NH2 (lactam 1-6) [cPT 23], the “HIV-1Bal.01 infection inhibition IC50” value falls from 1.2 µM to 0.269 µM (4.5-fold).

Going from DNI[triazolo‑Pro(4-Me-benzyl)]WK-NH2 (lactam 1-6) [cPT 24] to DNI[triazolo‑Pro]WK-NH2 (lactam 1-6; not fully specified) [cPT 18], the “HIV-1Bal.01 infection inhibition IC50” value rises from 0.18 µM to 1.4 µM (7.8-fold).

Going from DNI[triazolo‑Pro(benzyl)]WK-NH2 (lactam 1-6) [cPT 19] to DNI[triazolo‑Pro(3-Me-benzyl)]WK-NH2 (lactam 1-6) [cPT 26], the “HIV-1Bal.01 infection inhibition IC50” value falls from 0.438 µM to 0.22 µM (2-fold).

Going from DNI[triazolo‑Pro(2,4-diMe-benzyl)]WK-NH2 (lactam 1-6) [cPT 27] to DNI[triazolo‑Pro(3,4-diMe-benzyl)]WK-NH2 (lactam 1-6) [cPT 29], the “HIV-1Bal.01 infection inhibition IC50” value rises from 0.302 µM to 8 µM (26-fold).
